{"source": "patent CN113621064A", "about": "(FUZHOU MAIXIN BIOTECHNOLOGY DEV CO LTD, dated 2021)", "target": "T1, CD117蛋白 (c-kit, 干细胞因子受体) (human, UniProt P10721 26-976)", "T1 construct": "whole, on cells; Endogenous antigen in tissue sections (immunohistochemistry); The abstract names it as human; also called 人CD117抗原", "T1 sequence (P10721 26-976)": "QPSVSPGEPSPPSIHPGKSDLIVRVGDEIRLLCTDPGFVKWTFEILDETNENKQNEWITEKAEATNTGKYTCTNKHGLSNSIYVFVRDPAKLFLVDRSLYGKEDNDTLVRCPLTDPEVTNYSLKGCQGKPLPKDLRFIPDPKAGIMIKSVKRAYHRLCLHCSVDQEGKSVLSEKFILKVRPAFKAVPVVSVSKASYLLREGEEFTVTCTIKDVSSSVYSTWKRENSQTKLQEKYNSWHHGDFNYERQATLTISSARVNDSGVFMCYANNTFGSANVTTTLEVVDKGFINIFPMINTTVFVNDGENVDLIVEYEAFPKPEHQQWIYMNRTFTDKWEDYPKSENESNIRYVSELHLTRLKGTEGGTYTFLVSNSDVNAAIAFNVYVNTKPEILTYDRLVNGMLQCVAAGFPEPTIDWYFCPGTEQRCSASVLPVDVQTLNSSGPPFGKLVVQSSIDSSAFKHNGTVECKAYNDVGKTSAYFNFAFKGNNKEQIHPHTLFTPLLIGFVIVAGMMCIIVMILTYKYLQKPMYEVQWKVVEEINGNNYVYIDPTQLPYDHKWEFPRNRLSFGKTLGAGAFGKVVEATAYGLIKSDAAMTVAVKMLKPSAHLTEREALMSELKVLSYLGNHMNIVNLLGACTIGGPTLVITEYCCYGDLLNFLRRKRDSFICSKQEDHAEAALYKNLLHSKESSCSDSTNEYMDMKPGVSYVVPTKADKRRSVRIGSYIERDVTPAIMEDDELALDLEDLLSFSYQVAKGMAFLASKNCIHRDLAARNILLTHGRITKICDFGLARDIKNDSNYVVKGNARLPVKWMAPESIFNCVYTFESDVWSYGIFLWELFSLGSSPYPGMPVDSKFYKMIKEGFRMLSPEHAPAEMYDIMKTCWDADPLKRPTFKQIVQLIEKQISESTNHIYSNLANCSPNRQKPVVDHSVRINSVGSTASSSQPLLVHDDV", "assay": "immunohistochemistry on a tissue array of 28 gastrointestinal stromal tumours"}
{"binder": "抗CD117蛋白单克隆抗体 (小鼠杂交瘤细胞株33G5分泌, CGMCC NO 21977) (antibody, V domains shown, also called CD117(33G5); 33G5分泌的CD117抗体) VH: EVKLQESGPSLVQPGGSMRLSCVASGFIFSNYWINWVRQSPEMGLEWIAQVKLKSDNYATHYAGSVKGRFTISRDDSKSSVYLQMNNLRPEDTGIYFCLGRLDVWGAGTTVTVSS VL: DIMLTQSPLSLSVTIGQPASISCKSSQSLLYTDGKTYLNWLLQRPGQSPKLLIYLVSKLDSGVPDRFSGSGSGTDFTLKISRVEAEDLGVYYCLQATHFPQTFGGGTKLEIK", "values": [{"measurement": "binding result", "value": "binds"}]}
